According to patent US20080188404:

hybrid protein DAF-MCP, sequence (chain, as listed by the source): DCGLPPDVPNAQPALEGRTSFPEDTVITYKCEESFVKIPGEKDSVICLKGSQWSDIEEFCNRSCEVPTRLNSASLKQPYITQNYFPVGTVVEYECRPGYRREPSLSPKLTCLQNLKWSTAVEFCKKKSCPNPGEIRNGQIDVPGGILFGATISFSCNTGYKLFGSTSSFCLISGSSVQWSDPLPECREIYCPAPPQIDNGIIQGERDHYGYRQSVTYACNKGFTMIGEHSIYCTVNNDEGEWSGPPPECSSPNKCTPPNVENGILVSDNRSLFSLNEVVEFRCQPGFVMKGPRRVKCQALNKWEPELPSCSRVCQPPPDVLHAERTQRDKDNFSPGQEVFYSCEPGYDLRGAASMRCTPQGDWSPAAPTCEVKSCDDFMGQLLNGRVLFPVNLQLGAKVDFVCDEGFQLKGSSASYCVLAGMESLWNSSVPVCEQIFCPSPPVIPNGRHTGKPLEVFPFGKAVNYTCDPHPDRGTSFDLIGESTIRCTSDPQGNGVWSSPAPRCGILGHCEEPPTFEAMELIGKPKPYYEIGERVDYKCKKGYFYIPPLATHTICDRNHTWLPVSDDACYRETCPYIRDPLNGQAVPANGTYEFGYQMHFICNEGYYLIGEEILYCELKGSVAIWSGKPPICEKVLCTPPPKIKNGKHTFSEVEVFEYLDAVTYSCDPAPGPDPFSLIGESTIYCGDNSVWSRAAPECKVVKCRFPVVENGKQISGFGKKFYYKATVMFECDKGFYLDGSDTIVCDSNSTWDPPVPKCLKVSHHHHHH
hybrid protein DAF-CR1B, sequence (chain, as listed by the source): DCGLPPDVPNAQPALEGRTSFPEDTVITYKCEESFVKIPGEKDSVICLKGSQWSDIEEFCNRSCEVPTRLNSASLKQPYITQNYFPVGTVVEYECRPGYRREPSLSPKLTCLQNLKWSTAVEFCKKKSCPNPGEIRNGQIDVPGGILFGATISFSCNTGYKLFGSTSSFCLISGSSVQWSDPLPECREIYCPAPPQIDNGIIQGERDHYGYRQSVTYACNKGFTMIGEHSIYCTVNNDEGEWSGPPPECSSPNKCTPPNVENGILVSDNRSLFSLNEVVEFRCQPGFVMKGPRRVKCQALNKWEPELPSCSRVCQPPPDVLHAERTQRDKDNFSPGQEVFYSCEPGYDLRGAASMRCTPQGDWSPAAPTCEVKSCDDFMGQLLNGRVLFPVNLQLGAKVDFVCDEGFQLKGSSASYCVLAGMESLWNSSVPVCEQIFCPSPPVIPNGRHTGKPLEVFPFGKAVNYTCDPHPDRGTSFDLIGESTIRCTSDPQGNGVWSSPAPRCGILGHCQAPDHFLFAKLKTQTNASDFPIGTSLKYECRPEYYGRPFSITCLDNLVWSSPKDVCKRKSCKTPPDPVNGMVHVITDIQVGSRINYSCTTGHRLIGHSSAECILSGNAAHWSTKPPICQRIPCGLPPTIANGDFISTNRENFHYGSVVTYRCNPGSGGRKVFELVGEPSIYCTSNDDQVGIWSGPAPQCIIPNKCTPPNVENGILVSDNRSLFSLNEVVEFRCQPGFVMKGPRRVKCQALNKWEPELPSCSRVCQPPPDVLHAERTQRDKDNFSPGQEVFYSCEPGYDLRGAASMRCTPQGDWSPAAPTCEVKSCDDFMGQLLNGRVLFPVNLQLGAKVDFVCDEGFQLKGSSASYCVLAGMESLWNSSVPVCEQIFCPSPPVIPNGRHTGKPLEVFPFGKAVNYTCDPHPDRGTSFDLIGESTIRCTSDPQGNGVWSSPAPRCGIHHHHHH

B1: human factor I (protein)
chain: KVTYTSQEDLVEKKCLAKKYTHLSCDKVFCQPWQRCIEGTCVCKLPYQCPKNGTAVCATNRRSFPTYCQQKSLECLHPGTKFLNNGTCTAEGKFSVSLKHGNTDSEGIVEVKLVDQDKTMFICKSSWSMREANVACLDLGFQQGADTQRRFKLSDLSINSTECLHVHCRGLETSLAECTFTKRRTMGYQDFADVVCYTQKADSPMDDFFQCVNGKYISQMKACDGINDCGDQSDELCCKACQGKGFHCKSGVCIPSQYQCNGEVDCITGEDEVGCAGFASVTQEETEILTADMDAERRRIKSLLPKLSCGVKNRMHIRRKRIVGGKRAQLGDLPWQVAIKDASGITCGGIYIGGCWILTAAHCLRASKTHRYQIWTTVVDWIHPDLKRIVIEYVDRIIFHENYNAGTYQNDIALIEMKKDGNKKDCELPRSIPACVPWSPYLFQPNDTCIVSGWGREKDNERVFSLQWGEVKLISNCSKFYGNRFYEKEMECAGTYDGSIDACKGDSGGPLVCMDANNVTYVWGVVSWGENCGKPEFPGVYTKVANYFDWISYHVGRPFISQYNV
- cofactor assay: factor I cleavage of C3b, Western blot (hybrid protein DAF-CR1B): DAF-CR1B acts as cofactor for factor I as shown by the appearance of a band at 29 kDa
- cofactor assay: factor I cleavage of C3b, SDS-PAGE and Western blot with anti-human C3 polyclonal antibody (hybrid protein DAF-MCP): Supernatants with factor I and either DAF-MCP or DAF-CR1BB both exhibited 43 and 40 kDa bands corresponding to formation of iC3b and C3c, respectively
